Laboratory results as given in US20170258835A1.
One block for each substance: values may come before it.

Key:
HLA-A2/NY-ESO-1 = test: cell-based or functional assay
EGFRviii = EGFRviii (UniProt P00533)
CD19 = CD19 (UniProt P15391); test: cell-based or functional assay
CD19, sequence (P15391 20-556 limits assumed): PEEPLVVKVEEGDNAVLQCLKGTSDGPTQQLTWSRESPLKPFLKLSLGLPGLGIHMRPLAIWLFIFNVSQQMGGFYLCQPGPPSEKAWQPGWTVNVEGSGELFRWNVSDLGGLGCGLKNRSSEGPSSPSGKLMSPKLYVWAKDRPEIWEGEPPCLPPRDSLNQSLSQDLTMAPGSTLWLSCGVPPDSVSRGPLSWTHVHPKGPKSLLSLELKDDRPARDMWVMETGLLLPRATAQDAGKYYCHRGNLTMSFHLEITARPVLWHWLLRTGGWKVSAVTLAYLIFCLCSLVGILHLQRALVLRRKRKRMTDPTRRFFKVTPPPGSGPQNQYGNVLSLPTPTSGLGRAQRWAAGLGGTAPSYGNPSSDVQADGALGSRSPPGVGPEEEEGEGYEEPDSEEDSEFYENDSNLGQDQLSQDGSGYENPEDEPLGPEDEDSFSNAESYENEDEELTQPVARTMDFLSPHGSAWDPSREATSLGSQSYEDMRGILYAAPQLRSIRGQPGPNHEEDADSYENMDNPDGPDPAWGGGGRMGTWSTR

CD8/CD107a double positive cells, stimulated with Nalm6-ESO (Affi-epsilon co-electroporated, EP3 to EP6) (HLA-A2/NY-ESO-1): 49.5 to 53.3%
Substance: NY-ESO-1 (1G4) TCR alpha and beta

CD107a+ share of CD8+ T cells after stimulation with K562-EGFRvIII (EGFRviii): 51.8%
Substance: MR1-BBZ

CD107a up-regulation, stimulated with K562-CD19 (CD19): 81% | IFN-gamma ELISA; lowest dose of CD19 mRNA electroporated into K562 that was recognized (CD19): 0.001 µg
Substance: Blinatumomab (secreted by T cells electroporated with Blinatumomab Bis-RNA) (bispecific antibody)
